Data published in US20210087298A1.

Experiments:
HER2 [1] = biological target: HER2 (UniProt P04626); assay: apparent Kd, flow cytometry on JIMT-1 cells
HER2 [2] = biological target: HER2 (UniProt P04626); assay: apparent Kd, flow cytometry on SKOV3 cells (n = 2)
HER2 [3] = biological target: HER2 (UniProt P04626); assay: apparent Kd, flow cytometry on SKOV3 cells
HER2 [4] = biological target: HER2 (UniProt P04626); assay: apparent Kd, flow cytometry on SKBr3 cells

| Kd (HER2 [1]) [nM] | Kd (HER2 [2]) [nM] | Kd (HER2 [3]) [nM] | Kd (HER2 [4]) [nM] | Substance |
| --- | --- | --- | --- | --- |
| 3.9 | 3.5 | 3.3 | 2.6 | trast A158N-MB488: trastuzumab A158N mutant conjugated through Neu5NAz on Fd glycans (antibody) |
| – | 3.5 | 3.4 | – | trast L189N-MB488: trastuzumab L189N mutant conjugated through Neu5NAz on Fd glycans (antibody) |
| 3.2 | – | 3.1 | 2.3 | trast K129N-MB488 (antibody) |
| – | – | – | 1.8 | trast T191N-MB488 (antibody) |
